Measured values: publication PMC12176259, “Bacterial transcriptional repressor NrdR – a flexible multifactorial nucleotide sensor” (The Febs Journal, 2025)
Values joined by “and” are separate entries in the source; they are usually repeats but may differ in a detail not shown here. Equal entries are not always repeated.

Molecular target: T1, NrdR (EcoNrdR) (Escherichia coli K-12 MG1655) (UniProt P0A8D0)
T1 sequence: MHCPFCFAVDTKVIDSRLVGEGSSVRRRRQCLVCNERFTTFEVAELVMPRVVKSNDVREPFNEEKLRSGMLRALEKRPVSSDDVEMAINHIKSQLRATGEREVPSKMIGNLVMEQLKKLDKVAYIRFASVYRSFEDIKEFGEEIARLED
Assay: MST
Settings: 17 mM Tris-HCl pH 8.6 (room temperature), 100 mM NaCl, 7 mM MgCl2, 0.33 mM TCEP, 0.025% Tween-20, nucleotide effectors 1 mM each, 5 nM Cy5-dsDNA, low values mean tight binding

Sequence | Kd
ACTATTTGCTATATATTGTGTGGTTGAATCTTTTTTCAACTACATCTAGTATCTCTG (double strand) [nrdHIEF promoter (nrdEF_Cy5)] | 138 nM and 328 nM and 187 nM
CATACCCCCTATATATAGTGTTCTAAGCAGCTTCCCGTACTACAGGTAGTCTGCATG (double strand) [nrdAB promoter box 1+2] | 128 nM and 113 nM and 96 nM
GCAAAGCACTATATATAGACTTTAAAATGCGTCCCAACCCAATATGTTGTATTAATC (double strand) [nrdDG promoter] | 160 nM and 171 nM and 152 nM
